Experimental data from the RNAGym collection of RNA variant scans (doi:10.1093/nar/gkz1192).

B1: CPEB3 Ribozyme (parent)
chain: UAACAGGGGGCCACAGCAGAAGCGUUCACGUCGCAGCCCCUGUCAGAUUCUGGUGAAUCUGCGAAUUCUGCUGUAUAUCUC

Variants of: B1
Experiment: self-cleavage, relative activity (ratio to wild type); higher = more cleavage; in vitro, sequencing
In short: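 Relative activity was defined as the cleaved/total read fraction for a variant divided by the same fraction for the unmutated ribozyme. CPEB3 self-cleaving ribozyme libraries were made by rounds of error-prone PCR, barcoded, and transcribed in vitro with T7 RNA polymerase for 5 hours at 37°C, and cleavage ran through transcription plus a 15 min DNase I step before EDTA. Illumina sequencing of template-switched reverse transcripts gave the reads, and DNA sequencing mapped the barcodes. Averages come from three batches, using variants with at least 5 reads.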

Q: With UAACAGGGGGCCACAGCGGAAGCGUUCACGUCGCAGCCCCUGUCAGAUUCUGGUGAAUCUGCGAAUUCUGCUAUAUAUCUC as the variant, how does the self-cleavage read?
A: 1.24

Q: For UAACAGGGGGCCACAGCGGAAGCGUUCACGUCGCAGCCCCUGUCAGAUUCUGGUGAAUCAGCGAAUUCUGCUGUAUAUCUC, which self-cleavage is on record?
A: 0.38

Q: For UAACAGGGGGCCACAGCGGAAGCGUUCACGUCGCAGCCCCUGUCAGAUUCUGGUGAAUCGGCGAAUUCUGCUGUAUAUCUC, which self-cleavage is on record?
A: 0.14

Q: For UAACAGGGGGCCACAGCGGAAGCGUUCACGUCGCAGCCCCUGUCAGAUUCUGGUGAAUCCGCGAAUUCUGCUGUAUAUCUC, which self-cleavage is on record?
A: 0.28

Q: With UAACAGGGGGCCACAGCGGAAGCGUUCACGUCGCAGCCCCUGUCAGAUUCUGGUGAACCUGCGAAUUCUGCUGUAUAUCUC as the variant, how does the self-cleavage read?
A: 0.28

Q: For UAACAGGGGGCCACAGCGGAAGCGUUCACGUCGCAGCCCCUGUCAGAUUCUGGUGAAGCUGCGAAUUCUGCUGUAUAUCUC, which self-cleavage is on record?
A: 0.28

Q: For UAACAGGGGGCCACAGCGGAAGCGUUCACGUCGCAGCCCCUGUCAGAUUCUGGUGAAACUGCGAAUUCUGCUGUAUAUCUC, which self-cleavage is on record?
A: 0.21

Q: For UAACAGGGGGCCACAGCGGAAGCGUUCACGCCGCAGCCCCUGUCAGAUUCUGGUGAAUCUGCGAAUUCUGCUGUAUAUCUC, which self-cleavage is on record?
A: 0.3

Q: With UAACAGGGGGCCACAGCGGAAGCGUUCACGACGCAGCCCCUGUCAGAUUCUGGUGAAUCUGCGAAUUCUGCUGUAUAUCUC as the variant, how does the self-cleavage read?
A: 0.41

Q: For UAACAGGGGGCCACAGCGGAAGCGUUCACGUCGCAGCCCCUGUCAGAUUCUGGUGAAUCUGCGAAUUCUCCUGUAUAUCUC, which self-cleavage is on record?
A: 0.13

Q: With UAACAGGGGGCCACAGCGGAAGCGUUCACGUCGCAGCCCCUGUCAGAUUCUGGUGAAUCUGCGAAUUCUACUGUAUAUCUC as the variant, how does the self-cleavage read?
A: 0.37

Q: For UAACAGGGGGCCACAGCGGAAGCGUUCACGUCGCAGCCCCUGUCAGAUCCUGGUGAAUCUGCGAAUUCUGCUGUAUAUCUC, which self-cleavage is on record?
A: 0.29

Q: Which self-cleavage does the source give for UAACAGGGGGCCACAGCGGAAGCGUUCACGUCGCAGCCCCUGUCAGAUACUGGUGAAUCUGCGAAUUCUGCUGUAUAUCUC here?
A: 0.32

Q: With UAACAGGGGGCCACAGCGGAAGCGUUCACGUCGCAGCCCCGGUCAGAUUCUGGUGAAUCUGCGAAUUCUGCUGUAUAUCUC as the variant, how does the self-cleavage read?
A: 0.42

Q: For UAACAGGGGGCCACAGCGGAAGCGUUCACGUCGCAGCCCCAGUCAGAUUCUGGUGAAUCUGCGAAUUCUGCUGUAUAUCUC, which self-cleavage is on record?
A: 0.26

Q: With UAACAGGGGGCCACAGCGGAAGCGUUCACGUCGCAGCCCCCGUCAGAUUCUGGUGAAUCUGCGAAUUCUGCUGUAUAUCUC as the variant, how does the self-cleavage read?
A: 0.68

Q: Which self-cleavage does the source give for UAACAGGGGGCCACAGCGGAAGCGUUCACGUCGCAGCCCCUGUCAGAUUCUGGCGAAUCUGCGAAUUCUGCUGUAUAUCUC here?
A: 0.57

Q: For UAACAGGGGGCCACAGCGGAAGCGUUCACGUCGCAGCCCCUGUCAGAUUCUGGAGAAUCUGCGAAUUCUGCUGUAUAUCUC, which self-cleavage is on record?
A: 0.8

Q: Which self-cleavage does the source give for UAACAGGGGGCCACAGCGGAAGCGUUCACGUCGCAGCCCCUGUCAGAUUCUGGGGAAUCUGCGAAUUCUGCUGUAUAUCUC here?
A: 0.36

Q: With UAACAGGGGGCCACAGCGGAAGCGUUCACGUCGCAGCCCCUGUCAGAAUCUGGUGAAUCUGCGAAUUCUGCUGUAUAUCUC as the variant, how does the self-cleavage read?
A: 0.16

Q: Which self-cleavage does the source give for UAACAGGGGGCCACAGCGGAAGCGUUCACGUCGCAGCCCCUGUCAGACUCUGGUGAAUCUGCGAAUUCUGCUGUAUAUCUC here?
A: 0.31

Q: Which self-cleavage does the source give for UAACAGGGGGCCACAGCGGAAGCGUCCACGUCGCAGCCCCUGUCAGAUUCUGGUGAAUCUGCGAAUUCUGCUGUAUAUCUC here?
A: 0.33

Q: Which self-cleavage does the source give for UAACAGGGGGCCACAGCGGAAGCGUACACGUCGCAGCCCCUGUCAGAUUCUGGUGAAUCUGCGAAUUCUGCUGUAUAUCUC here?
A: 0.48

Q: For UAACAGGGGGCCACAGCGGAAGCGUUCACGUCGCAGCCCCUGUCAGAUUCCGGUGAAUCUGCGAAUUCUGCUGUAUAUCUC, which self-cleavage is on record?
A: 0.48

Q: For UAACAGGGGGCCACAGCGGAAGCGUUCACGUCGCAGCCCCUGUCAGAUUCGGGUGAAUCUGCGAAUUCUGCUGUAUAUCUC, which self-cleavage is on record?
A: 0.77

Q: With UAACAGGGGGCCACAGCGGAAGCGUUCACGUCGCAGCCCCUGUCAGAUUCAGGUGAAUCUGCGAAUUCUGCUGUAUAUCUC as the variant, how does the self-cleavage read?
A: 0.74

Q: For UAACAGGGGGCCACAGCGGAAGCGCUCACGUCGCAGCCCCUGUCAGAUUCUGGUGAAUCUGCGAAUUCUGCUGUAUAUCUC, which self-cleavage is on record?
A: 0.26

Q: Which self-cleavage does the source give for UAACAGGGGGCCACAGCGGAAGCGAUCACGUCGCAGCCCCUGUCAGAUUCUGGUGAAUCUGCGAAUUCUGCUGUAUAUCUC here?
A: 0.38

Q: For UAACAGGGGGCCACAGCGGAAGCGGUCACGUCGCAGCCCCUGUCAGAUUCUGGUGAAUCUGCGAAUUCUGCUGUAUAUCUC, which self-cleavage is on record?
A: 0.17

Q: Which self-cleavage does the source give for UAACAGGGGGCCACAGCGGAAGCGUUCACGUCGCAGCCCCUGUCAGAUUCUGGUGAAUCUGCUAAUUCUGCUGUAUAUCUC here?
A: 1.02

Q: For UAACAGGGGGCCACAGCGGAAGCGUUCACGUCGCAGCCCCUGUCAGAUUCUGGUGAAUCUGCCAAUUCUGCUGUAUAUCUC, which self-cleavage is on record?
A: 0.55

Q: For UAACAGGGGGCCACAGCGGAAGCGUUCACGUCGCAGCCCCUGGCAGAUUCUGGUGAAUCUGCGAAUUCUGCUGUAUAUCUC, which self-cleavage is on record?
A: 0.36

Q: With UAACAGGGGGCCACAGCGGAAGCGUUCACGUCGCAGCCCCUGCCAGAUUCUGGUGAAUCUGCGAAUUCUGCUGUAUAUCUC as the variant, how does the self-cleavage read?
A: 0.35

Q: For UAACAGGGGGCCACAGCGGAAGCGUUCACGUCGCAGCCCCUGACAGAUUCUGGUGAAUCUGCGAAUUCUGCUGUAUAUCUC, which self-cleavage is on record?
A: 0.72
